This passage reports binding result and Km for phosphorylation of the peptide (radiolabel filter binding kinase assay) results from paper PMC3898841, “Identification of a Major Determinant for Serine-Threonine Kinase Phosphoacceptor Specificity” (Molecular Cell, 2014).

Test [1] concerns the target T1, WT PAK4 catalytic domain (human, UniProt O96013 286-591, phosphoserine at 474 (activation loop, as seen in the structures)).
T1 construct: residues built in the models: 300-589 (4JDH, 4JDI) and 291-591 (2Q0N); The construct of PDB 2Q0N may have other limits than that of 4JDH/4JDI
Put plainly: crystal structure; cocrystals of PAK4 with PAKtide-S(L), 1.7 M ammonium sulfate, 15% PEG400, 0.1 M Tris-HCl (pH 8.0). The note with it: both partners purified.

In test [2] the target is T2, PAK4 F461V catalytic domain (human, UniProt O96013 286-591, F461V, phosphoserine at 474 (activation loop, as seen in the structures)).
T2 construct: residues built in the models: 300-589; also called F461V mutant PAK4
T2 sequence (O96013 286-591 F461V): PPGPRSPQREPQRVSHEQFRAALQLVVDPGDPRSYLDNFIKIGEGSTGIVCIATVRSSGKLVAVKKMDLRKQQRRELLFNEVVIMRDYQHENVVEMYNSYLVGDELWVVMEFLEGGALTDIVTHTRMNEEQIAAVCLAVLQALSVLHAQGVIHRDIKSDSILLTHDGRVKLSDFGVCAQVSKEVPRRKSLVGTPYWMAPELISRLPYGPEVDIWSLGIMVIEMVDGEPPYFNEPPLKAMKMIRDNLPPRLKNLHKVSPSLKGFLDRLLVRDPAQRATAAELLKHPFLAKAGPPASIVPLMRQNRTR

Test [3] concerns the target T1, WT PAK4 catalytic domain.
The target in the next test is MST4 V165F (human) (UniProt Q9P289).
MST4 V165F (human), sequence (Q9P289 whole entry V165F): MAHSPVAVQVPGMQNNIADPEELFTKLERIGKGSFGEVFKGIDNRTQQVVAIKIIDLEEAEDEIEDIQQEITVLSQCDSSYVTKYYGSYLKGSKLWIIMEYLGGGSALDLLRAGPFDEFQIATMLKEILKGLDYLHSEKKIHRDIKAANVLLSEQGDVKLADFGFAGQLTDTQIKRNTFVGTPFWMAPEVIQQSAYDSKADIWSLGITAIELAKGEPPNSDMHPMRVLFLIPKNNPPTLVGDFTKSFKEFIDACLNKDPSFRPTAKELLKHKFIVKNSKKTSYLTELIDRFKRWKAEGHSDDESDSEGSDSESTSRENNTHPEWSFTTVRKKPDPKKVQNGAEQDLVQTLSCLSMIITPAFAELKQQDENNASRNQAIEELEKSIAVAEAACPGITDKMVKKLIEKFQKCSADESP
For a further test, the target named is WT MST4 (human) (UniProt Q9P289).
WT MST4 (human), sequence (Q9P289 whole entry, the tested form may be a part): as the sequence (Q9P289 whole entry V165F) above, with F165V counted along it
For test [4], the target named is T1, WT PAK4 catalytic domain. In words: crystal structure; WT PAK4 crystals grown by hanging drop vapor diffusion against 0.1 M Tris-HCl (pH 7.5), 1.5-2.0 M NaOAc at room temperature and soaked with peptides. The note with it: both partners purified.
In test [5] the target is T2, PAK4 F461V catalytic domain. Put plainly: crystal structure; PAK4 F461V cocrystals with peptide, hanging drop vapor diffusion, 0.1 M Tris-HCl (pH 7.5), 1.5-2.0 M NaOAc at room temperature. The note with it: both partners purified.

T1 sequence (O96013 286-591): as the sequence (O96013 286-591 F461V) above, with V176F counted along it

B1: PAKtide-S(L) (peptide)
peptide: RRRRRSWYFDG
notes: longer consensus peptide substrate of PAK4, phosphoacceptor Ser (P0); also called longer version of the consensus peptide; source: synthetic peptide
B1: the binding result with WT PAK4 catalytic domain [1] is given as “binds”.

B2: PAK4 substrate peptide … (X = Ser) (peptide)
peptide: GGRRRRRSWYFGGGK
On to B2, for which the Km for phosphorylation of the peptide (radiolabel filter binding kinase assay) is 129 µM in test [2] and 280 µM in the test with WT PAK4 catalytic domain [3].

B3: MST4 substrate peptide … (X = Thr) (peptide)
peptide: NKGYNTLRRKK
As to B3, the Km for phosphorylation of the peptide (radiolabel filter binding kinase assay) came to 390 µM with MST4 V165F (human) and 14 µM with WT MST4 (human).

B4: MST4 substrate peptide … (X = Ser) (peptide)
peptide: NKGYNSLRRKK
On to B4, for which the Km for phosphorylation of the peptide (radiolabel filter binding kinase assay) was determined as 360 µM in the test with MST4 V165F (human) and 21.7 µM with WT MST4 (human).

B5: PAKtide-S (peptide)
peptide: RRRRSWY
notes: consensus peptide substrate of PAK4, phosphoacceptor Ser (P0); also called PAK4 consensus peptide substrate with Ser phosphoacceptor (short form used for crystals); source: synthetic peptide
Regarding B5, the binding result (in the test with WT PAK4 catalytic domain [4]; in test [5]) was “binds” in each case.
